Laboratory results from patent publication US20070224124A1 (UNIVERSITY OF SOUTH FLORIDA, published 2007).

T1: mSosI ( (endogenous in murine ES …, UniProt Q62245 1-1319))
T1 construct: Its expression in ES cells was confirmed by immunoblot of whole cell lysate; also called mSos1
T1 sequence (looked up): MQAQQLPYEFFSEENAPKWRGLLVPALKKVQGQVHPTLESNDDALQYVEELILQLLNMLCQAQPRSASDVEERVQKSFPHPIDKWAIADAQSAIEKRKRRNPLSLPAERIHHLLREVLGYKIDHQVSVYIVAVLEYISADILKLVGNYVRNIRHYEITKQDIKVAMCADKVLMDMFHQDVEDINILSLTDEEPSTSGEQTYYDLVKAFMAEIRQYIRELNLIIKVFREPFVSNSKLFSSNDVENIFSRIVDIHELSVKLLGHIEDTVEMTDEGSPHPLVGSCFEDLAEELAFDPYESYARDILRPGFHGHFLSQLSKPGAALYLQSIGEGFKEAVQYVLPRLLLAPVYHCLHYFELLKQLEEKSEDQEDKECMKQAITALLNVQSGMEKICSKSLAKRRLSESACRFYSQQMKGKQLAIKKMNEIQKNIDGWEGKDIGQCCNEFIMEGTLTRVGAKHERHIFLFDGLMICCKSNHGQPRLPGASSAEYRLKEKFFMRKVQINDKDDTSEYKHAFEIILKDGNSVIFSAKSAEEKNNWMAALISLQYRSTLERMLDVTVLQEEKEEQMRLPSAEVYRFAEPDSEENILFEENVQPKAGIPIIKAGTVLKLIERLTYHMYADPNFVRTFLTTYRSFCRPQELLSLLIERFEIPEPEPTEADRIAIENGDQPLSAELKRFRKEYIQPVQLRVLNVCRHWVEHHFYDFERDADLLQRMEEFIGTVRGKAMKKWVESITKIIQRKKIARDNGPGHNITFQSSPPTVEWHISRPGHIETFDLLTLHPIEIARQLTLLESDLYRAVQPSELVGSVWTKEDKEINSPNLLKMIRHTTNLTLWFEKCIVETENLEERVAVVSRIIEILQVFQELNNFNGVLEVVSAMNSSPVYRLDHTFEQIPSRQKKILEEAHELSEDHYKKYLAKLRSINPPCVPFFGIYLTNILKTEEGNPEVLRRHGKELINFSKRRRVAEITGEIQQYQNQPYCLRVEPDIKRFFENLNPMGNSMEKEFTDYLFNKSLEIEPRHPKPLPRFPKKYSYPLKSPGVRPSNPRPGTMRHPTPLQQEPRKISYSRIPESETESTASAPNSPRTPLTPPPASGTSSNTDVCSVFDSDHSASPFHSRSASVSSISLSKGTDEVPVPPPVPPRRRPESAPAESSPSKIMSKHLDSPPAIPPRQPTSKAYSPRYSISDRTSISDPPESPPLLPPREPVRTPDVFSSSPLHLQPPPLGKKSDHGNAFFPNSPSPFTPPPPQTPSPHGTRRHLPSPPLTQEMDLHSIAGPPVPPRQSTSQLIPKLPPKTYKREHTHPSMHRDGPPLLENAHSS

B1: Shc adapter protein (other, UniProt P98083 1-579, looked up)
chain: MDLLPPKPKYNPLRNESLSSLEEGASGSTPPEELPSPSASSLGPILPPLPGDDSPTTLCSFFPRMSNLKLANPAGGRLGPKGEPGKAAEDGEGSAGAALRDSGLLPLLQDMNKLSGGGGRRTRVEGGQLGGEEWTRHGSFVNKPTRGWLHPNDKVMGPGVSYLVRYMGCVEVLQSMRALDFNTRTQVTREAISLVCEAVPGAKGATRRRKPCSRPLSSILGRSNLKFAGMPITLTVSTSSLNLMAADCKQIIANHHMQSISFASGGDPDTAEYVAYVAKDPVNQRACHILECPEGLAQDVISTIGQAFELRFKQYLRNPPKLVTPHDRMAGFDGSAWDEEEEEPPDHQYYNDFPGKEPPLGGVVDMRLREGAARPTLPSAQMSSHLGATLPIGQHAAGDHEVRKQMLPPPPCPGRELFDDPSYVNIQNLDKARQAGGGAGPPNPSLNGSAPRDLFDMKPFEDALRVPPPPQSMSMAEQLQGEPWFHGKLSRREAEALLQLNGDFLVRESTTTPGQYVLTGLQSGQPKHLLLVDPEGVVRTKDHRFESVSHLISYHMDNHLPIISAGSELCLQQPVDRKV
notes: Its expression in ES cells was confirmed by immunoblot of whole cell lysate
B2: s-SHIP (stem-SHIP; SH2-lacking isoform of SH2-containing inositol 5'-phosphatase, approximately 104 kd) (enzyme, mouse, UniProt Q9ES52-5 1-928, looked up)
chain: MVAKLSQLTSLLSSIEDKVKSLLHEGSESTNRRSLIPPVTFEVKSESLGIPQKMHLKVDVESGKLIVKKSKDGSEDKFYSHKKILQLIKSQKFLNKLVILVETEKEKILRKEYVFADSKKREGFCQLLQQMKNKHSEQPEPDMITIFIGTWNMGNAPPPKKITSWFLSKGQGKTRDDSADYIPHDIYVIGTQEDPLGEKEWLELLRHSLQEVTSMTFKTVAIHTLWNIRIVVLAKPEHENRISHICTDNVKTGIANTLGNKGAVGVSFMFNGTSLGFVNSHLTSGSEKKLRRNQNYMNILRFLALGDKKLSPFNITHRFTHLFWLGDLNYRVELPTWEAEAIIQKIKQQQYSDLLAHDQLLLERKDQKVFLHFEEEEITFAPTYRFERLTRDKYAYTKQKATGMKYNLPSWCDRVLWKSYPLVHVVCQSYGSTSDIMTSDHSPVFATFEAGVTSQFVSKNGPGTVDSQGQIEFLACYATLKTKSQTKFYLEFHSSCLESFVKSQEGENEEGSEGELVVRFGETLPKLKPIISDPEYLLDQHILISIKSSDSDESYGEGCIALRLETTEAQHPIYTPLTHHGEMTGHFRGEIKLQTSQGKMREKLYDFVKTERDESSGMKCLKNLTSHDPMRQWEPSGRVPACGVSSLNEMINPNYIGMGPFGQPLHGKSTLSPDQQLTAWSYDQLPKDSSLGPGRGEGPPTPPSQPPLSPKKFSSSTANRGPCPRVQEARPGDLGKVEALLQEDLLLTKPEMFENPLYGSVSSFPKLVPRKEQESPKMLRKEPPPCPDPGISSPSIVLPKAQEVESVKGTSKQAPVPVLGPTPRIRSFTCSSSAEGRMTSGDKSQGKPKASASSQAPVPVKRPVKPSRSEMSQQTTPIPAPRPPLPVKSPAVLQLQHSKGRDYRDNTELPHHGKHRQEEGLLGRTAMQ
notes: also called 8-SHIP protein isoform; 104-kd and 97-kd proteins

Experiments:
[1] = molecular target: B2; test: co-immunoprecipitation from ES-TL1 cell lysate with P2C6 anti-SHIP antibody, immunoblot for Shc
Text: (§1) FIG. 6 illustrates how ES cells express the 8-SHIP protein isoform that associates with the Grb2 adapter protein. (A) Immunoprecipitation and immunoblot detection of s-SHIP in ES cell lysates. […] No tyrosine phosphorylation of these proteins was detected when they were probed with the 4G10 anti-phosphotyrosine antibody. For comparison, lysates from 293T cells transfected with SHIP cDNA (lane 1) and s-SHIP cDNA (lane 2) were included in the blots. To further assess the tyrosine phosphorylation status of s-SHIP, timed LIF stimulation studies were performed. ES-TL1 cells incubated for 5 hours without LIF were stimulated with 2000 U/mL LIF for 0, 2, 5, or 10 minutes and were rapidly lysed. Equal amounts of total protein were immunoprecipitated with the P2C6 antibody and probed separately with the P2C6 and 4G10 antibodies (lanes 6-9). No tyrosine phosphorylation of s-SHIP was detected at any time point with the 4G10 antibody. For comparison, A20 8-lymphoid cells were stimulated with antiIgG antibody for 0 or 5 minutes, lysed, immunoprecipitated with P2C6, and probed with P2C6 and 4G10 (lanes 3, 4), showing prominent tyrosine phosphorylation of SHIP at 5 minutes. Molecular mass standards are indicated on the right. (B) s-SHIP associates with Grb2 but not Shc in ES cells. ES-TL1 cell lysates were prepared and immunoprecipitated with the […] anti-SHIP monoclonal antibody. […]

mSosI = molecular target: T1, mSosI; test: co-immunoprecipitation from ES-TL1 cell lysate with P2C6 anti-SHIP antibody, immunoblot for mSosI
Text: as §1

Row | Binder | binding result [1] | binding result (mSosI)
1 | B1 | no binding | 
2 | B2 |  | no binding
